Molecular target: full-length native GPC (strain Josiah) expressed on HEK293T cells (Lassa virus, strain Josiah, UniProt P08669)
Experiment: flow cytometry on cells
Conditions: one partner purified

B1: 25.10C IgG (antibody, V domains shown)
VH: QVQLQESGGGLVKPGGSLRLSCTASGFNFNKYNMNWVRQAPGKGLEWVSSISALSTYIYYADSLKGRFTVSRDNAKNSLFLQMNSLRDDDTAVYYCAREIRRASTWSADLWGRGTLVTVSS
VL: DIQMTQSPSSLSASVGDRVIITCRASQSISSSLNWYQQKPGKAPKLLIYAAVNLETGVPSRFSGSGFGTDFTLAISNVQPEDFATYYCQQSDTRTFGRGTKLDVK
notes: IgG1
B1: binds.

From paper PMC11422484 (Cell Reports, 2024)
